The record followed here is article doi:10.1101/2023.11.28.568818 (bioRxiv, 2023).

This data set concerns the molecule itself. In words: ThT fluorescence + negative stain TEM.

On to DNIKHVPGGGSVQIVYKPV [jR2R3 peptide (tau residues 295-313)], for which the binding result was “binds”.
The entry for VLGGGSVQIVYKPV [jΔR3-P301L peptide (tau 300-313 with P301L)] is “binds”.
The entry for VPGGGSVQIVYKPV [jΔR3 peptide (C-terminal half of jR2R3, tau 300-313)] is “binds”.
